Measured values published in the Human Domainome abundance scans (Beltran et al. 2025).
± gives the uncertainty stated by the source.

B1: Receptor-interacting serine/threonine-protein kinase 2, residues 438 to 518; numbered along this chain, O43353 (parent)
chain: QWIQSKREDIVNQMTEACLNQSLDALLSRDLIMKEDYELVSTKPTRTSKVRQLLDTTDIQGEEFAKVIVQKLKDNKQMGLQ

Variants of: B1
Test: abundance fitness (aPCA) (normalised: wild type 0, dead -1); higher = more abundant; growth selection in yeast, the domain comes from the species named
Conditions: Homo sapiens

Abundance fitness, by site and new letter:
E38: Q -0.165 ± 0.12; M -0.088 ± 0.25; L -0.075 ± 0.076; C -0.719 ± 0.13; W -0.12 ± 0.095; H -0.06 ± 0.13; I 0.053 ± 0.15; V -0.226 ± 0.1; Y -0.237 ± 0.12; N -0.463 ± 0.13; G -0.509 ± 0.084; A -0.129 ± 0.075; S -0.375 ± 0.07; F -0.221 ± 0.11; T -0.157 ± 0.076; R -0.227 ± 0.072; K -0.216 ± 0.2
S41: G -0.295 ± 0.063; P -0.599 ± 0.085; M 0.166 ± 0.047; R 0.046 ± 0.046; V 0.11 ± 0.05; W -0.466 ± 0.1; K 0.158 ± 0.12; T -0.004 ± 0.079; A -0.007 ± 0.064; L 0.069 ± 0.054; D -0.448 ± 0.098; Y -0.117 ± 0.11; Q 0.139 ± 0.076; E -0.259 ± 0.11; I 0.09 ± 0.11; N 0.094 ± 0.099; C -0.042 ± 0.07
T42: V -0.415 ± 0.061; P -0.89 ± 0.16; C -0.108 ± 0.082; N -0.115 ± 0.15; I -0.225 ± 0.16; H -0.156 ± 0.088; K -0.206 ± 0.42; Q 0.207 ± 0.13; F -0.243 ± 0.086; R 0.066 ± 0.061; L -0.225 ± 0.073; E -0.158 ± 0.29; D -0.318 ± 0.087; M 0.012 ± 0.1; S 0.022 ± 0.061; Y -0.406 ± 0.15; A -0.069 ± 0.075
T45: N -0.011 ± 0.23; R -0.879 ± 0.07; L -0.696 ± 0.069; H -0.568 ± 0.22; Q -0.652 ± 0.1; V -0.56 ± 0.083; E -0.364 ± 0.25; W -0.571 ± 0.1; C -0.308 ± 0.11; Y -1.11 ± 0.47; I -0.87 ± 0.21; A -0.476 ± 0.082; K -0.999 ± 0.24; D 0.029 ± 0.14; P -0.579 ± 0.092
V40: M -0.815 ± 0.22; C -0.302 ± 0.11; F -0.436 ± 0.18; R -0.836 ± 0.082; D -0.754 ± 0.23; P -0.732 ± 0.11; Y -0.438 ± 0.48; I 0.146 ± 0.19; E -0.682 ± 0.13; H 0.095 ± 0.37; G -0.715 ± 0.081; T -0.997 ± 0.2; L -0.701 ± 0.1; A -0.528 ± 0.085; S -0.603 ± 0.079; W -1.04 ± 0.23; N -0.466 ± 0.38
K43: Q -0.098 ± 0.14; Y -1 ± 0.48; I -0.535 ± 0.28; H -0.109 ± 0.28; P -0.695 ± 0.25; C -0.219 ± 0.22; D -1.06 ± 0.37; L -0.008 ± 0.075; R 0.013 ± 0.061; F -0.466 ± 0.14; S -0.46 ± 0.088; W -1.04 ± 0.34; T -0.89 ± 0.25; G -0.451 ± 0.049; V -0.348 ± 0.11
D36: Y -0.608 ± 0.28; V -0.587 ± 0.24; R -0.718 ± 0.074; Q 0.121 ± 0.084; W -1.04 ± 0.16; P -0.459 ± 0.065; T -0.244 ± 0.11; S -0.551 ± 0.077
Y37: N -0.401 ± 0.14; V -0.413 ± 0.091; D -0.471 ± 0.17; C -0.547 ± 0.21; A -0.084 ± 0.067; Q -0.547 ± 0.11; H -0.568 ± 0.23; S -0.518 ± 0.045; L -0.186 ± 0.068; K -0.412 ± 0.19; W -0.232 ± 0.066; I -0.401 ± 0.27; M -0.788 ± 0.2; P -0.614 ± 0.084; G -0.519 ± 0.06
P44: T -0.283 ± 0.1; H -0.761 ± 0.2; L -0.263 ± 0.067; C -0.491 ± 0.15; E -0.141 ± 0.1; Q -0.169 ± 0.11; K -0.298 ± 0.16; V -0.214 ± 0.071; W -0.483 ± 0.1; A -0.181 ± 0.079; G -0.314 ± 0.064; R -0.265 ± 0.052; N -0.196 ± 0.29; Y -0.2 ± 0.26; S -0.304 ± 0.075
R46: M -0.411 ± 0.12; N -0.288 ± 0.22; T 0.02 ± 0.091; F -0.447 ± 0.14; E -0.214 ± 0.16; H -0.012 ± 0.11; D -0.221 ± 0.088; I 0.007 ± 0.15; L 0.143 ± 0.037; G -0.596 ± 0.054; P -0.519 ± 0.1; C -0.285 ± 0.079; A -0.674 ± 0.11; V -0.045 ± 0.034
L39: E -0.003 ± 0.14; W -0.815 ± 0.13; H -0.107 ± 0.081; F -0.436 ± 0.09; I -0.352 ± 0.11; G -0.34 ± 0.056; V -0.199 ± 0.079; C -0.379 ± 0.1; P -0.635 ± 0.13; S -0.138 ± 0.071; A 0.092 ± 0.08; K 0.119 ± 0.19; Y -0.407 ± 0.23; N -0.034 ± 0.17; D -0.194 ± 0.11; R 0.015 ± 0.047; M -0.218 ± 0.23
